Laboratory results from patent US20250339569A1 (3B PHARMACEUTICALS, published 2025).
Starred links: 1 amine or outer side, 2 acyl side, 3 side chain; linkers in the order of their positions; H or OH if unused. Positions of bridges follow the written chain, without caps; N, C: chain ends. Non-standard residues stand in square brackets, D forms with d. Primed or numbered codes have the meaning given here. No end group written: not given here. *: point of attachment. Af3(Aytr) = 3-amino-L-phenylalanine, ring amine acylated with triazol-1-yl acetic acid bearing a 4-hydroxamic acid group, O=C(Cn1cc(C(=O)NO)nn1)Nc1cccc(C[C@H](N[*:1])C(=O)[*:2])c1; Af3(CMPy) = 3-amino-L-phenylalanine acylated on the ring amine with 5-cyano-1-methyl-1H-pyrazole-4-carboxylic acid, Cn1ncc(C(=O)Nc2cccc(C[C@H](N[*:1])C(=O)[*:2])c2)c1C#N; Aph(Hspy) = 4-amino-L-phenylalanine, ring amine acylated with 4-sulfamoyl-1H-pyrrole-2-carboxylic acid, NS(=O)(=O)c1c[nH]c(C(=O)Nc2ccc(C[C@H](N[*:1])C(=O)[*:2])cc2)c1; Aph(HO-Succinyl) = 4-aminophenylalanine acylated on the ring amine with succinic acid (free carboxyl), O=C(CCC(=O)[*:3])Nc1ccc(C[C@H](N[*:1])C(=O)[*:2])cc1; Af3(PrHydr) = 3-amino-L-phenylalanine, ring amine acylated by 4-(hydroxycarbamoyl)butanoic acid, O=C(CCCC(=O)Nc1cccc(C[C@H](N[*:1])C(=O)[*:2])c1)NO; Aph(MSAc) = 4-aminophenylalanine acylated on the ring amine with 2-methanesulfonylacetic acid, CS(=O)(=O)CC(=O)Nc1ccc(C[C@H](N[*:1])C(=O)[*:2])cc1; Aph(SaPr)″ = 4-amino-L-phenylalanine, ring amine acylated with 3-sulfamoylpropanoic acid, NS(=O)(=O)CCC(=O)Nc1ccc(C[C@H](N[*:1])C(=O)[*:2])cc1; Aph(SaPr) = 4-amino-L-phenylalanine, ring amine acylated by 3-sulfamoylpropanoic acid, NS(=O)(=O)CCC(=O)Nc1ccc(C[C@H](N[*:1])C(=O)[*:2])cc1; Af3(DkpAc) = 3-amino-L-phenylalanine acylated on the ring amine with 2-(3,6-dioxopiperazin-2-yl)acetic acid; Af3(Cshx) = 3-amino-L-phenylalanine, ring amine acylated with 4-sulfamoylcyclohexane-1-carboxylic acid; Phe(3-NHCO(CH2)3SO2NH2) = N[C@@H](Cc1cccc(NC(=O)CCCS(N)(=O)=O)c1)C(=O)O; APAc″ = 2-(4-(amino)piperidin-1-yl)acetic acid, NC1CCN(CC(=O)*)CC1; DOTA = O=C(O)CN1CCN(CC(=O)O)CCN(CC(=O)*)CCN(CC(=O)O)CC1; PPAc = 4-carboxymethyl piperazine linker; mXylylene = c1cc(C[*:1])cc(C[*:2])c1; Af3(Aype) = not defined here; Af3(Hytr) = not defined here; Aph(Aybu) = not defined here; PPAc″ = not defined here; Dap = NC[C@H](N)C(=O)O; AEEA = NCCOCCOCC(=O)O

Experiments:
[1] = biological target: T1, Fc-fusion protein of human carbonic anhydrase IX (human, UniProt Q16790 38-414); experiment: SPR, captured hCAIX-Fc; pKD category B: 7.1-8.0
Experimental: (§1) Stock solutions of test compounds were prepared by dissolving each compound in DMSO. DMSO stock solution were diluted 1:1000 in Running Buffer without DMSO. […] SPR binding analyses were performed in Single Cycle Kinetic (SCK) mode at 25° C.
(§2) For each test compound, SPR raw data in the form of resonance units (RU) were plotted as sensorgrams using the Biacore™ T200 control software. The signal from the blank sensorgram was subtracted from that of the test compound sensorgram (blank corrected). The blank corrected sensorgram was corrected for baseline drift by subtracting the sensorgram of a SCK run without the test compound (running buffer only). […] Raw data and fit results were imported as text files in IDBS. The pKD value (negative decadic logarithm of dissociation constant) was calculated in the IDBS excel template.

[2] = biological target: T1, Fc-fusion protein of human carbonic …; experiment: SPR, captured hCAIX-Fc; t1/2 category D: <=2.0 min
Experimental: as §1, §2

[3] = biological target: T1, Fc-fusion protein of human carbonic …; experiment: SPR, captured hCAIX-Fc; pKD category A: >8.0
[4] = biological target: T1, Fc-fusion protein of human carbonic …; experiment: SPR, captured hCAIX-Fc; t1/2 category A: >15.0 min
[5] = biological target: T2, human carbonic anhydrase IX (CAIX) (human, UniProt Q16790 38-459); experiment: FACS competition, HT-29 cells, tracer 3BP-2776; pIC50 category B: 7.1-8.0
Experimental: (§3) CAIX-expressing human HT-29 colorectal cancer cells (DSMZ, RRID: CVCL_0320) were cultured in McCoys's 5A modified medium (Biochrom, #F1015) including 10% fetal calf serum (FCS), 2 mM L-glutamine, 100 U/ml penicillin and 100 μg/mL streptomycin. Cells were detached with Accutase (Biolegend, #423201) and washed in FACS buffer (PBS including 1% FCS). Cells were diluted in FACS buffer to a final concentration of 500.000 cells per ml. 200 μL of the cell suspension were transferred to a u-shaped non-binding 96-well plate (Greiner) and cells were washed in ice-cold FACS buffer.
(§4) When biotinylated compounds were used an additional incubation step with 1 μg/mL APC-Streptavidin (Miltenyi; #130-106-791) in 50 μL FACS buffer for 30 minutes on ice was performed.
(§5) Cells were washed twice with ice-cold FACS buffer and analyzed in an Attune NxT flow cytometer (Thermo Fisher). Median fluorescence intensities (MFI) of the APC/Cy5-channel were calculated by Attune NxT software.

[6] = biological target: T3, human carbonic anhydrase 9 (CAIX) (human, UniProt Q16790 38-459); experiment: FACS competition on HT-29 cells, competitor tracer 3BP-4149; category A = pIC50 >8.0
Experimental: as §3, §4, §5

[7] = biological target: T1, Fc-fusion protein of human carbonic …; experiment: SPR, captured hCAIX-Fc; t1/2 category C: 2.1-5.0 min
[8] = biological target: T4, human carbonic anhydrase IV (CAIV), biotinylated (human, UniProt P22748 19-283, limits assumed, biotinylated); experiment: SPR, biotinylated CAIV captured (Biotin CAPture)
T4 construct: Bought (SinoBiological, Cat # printed 10472-1H081H); also called hCAIV-bio
Source text: as §2

[9] = biological target: T5, human carbonic anhydrase XII (CAXII), biotinylated (human, UniProt O43570 25-301, biotinylated); experiment: SPR, biotinylated CAXII captured (Biotin CAPture)
T5 construct: Bought (SinoBiological Cat #10617-H08H); also called hCAXII-bio
Source text: as §2

[10] = biological target: T6, human carbonic anhydrase XIV (CAXIV), biotinylated (human, UniProt Q9ULX7 16-290, biotinylated); experiment: SPR, biotinylated CAXIV captured (Biotin CAPture)
T6 construct: Bought (SinoBiological Cat #10458-H08H); also called hCAXIV-bio
Source text: as §2

[11] = biological target: T2, human carbonic anhydrase IX (CAIX); experiment: FACS competition, HT-29 cells, tracer 3BP-2776; pIC50 category C: 6.1-7.0
Experimental: as §3, §4, §5

[12] = biological target: T3, human carbonic anhydrase 9 (CAIX); experiment: FACS competition on HT-29 cells, competitor tracer 3BP-4149; category C = pIC50 6.1-7.0
Experimental: as §3, §4, §5

T4 sequence (P22748 19-283 limits assumed): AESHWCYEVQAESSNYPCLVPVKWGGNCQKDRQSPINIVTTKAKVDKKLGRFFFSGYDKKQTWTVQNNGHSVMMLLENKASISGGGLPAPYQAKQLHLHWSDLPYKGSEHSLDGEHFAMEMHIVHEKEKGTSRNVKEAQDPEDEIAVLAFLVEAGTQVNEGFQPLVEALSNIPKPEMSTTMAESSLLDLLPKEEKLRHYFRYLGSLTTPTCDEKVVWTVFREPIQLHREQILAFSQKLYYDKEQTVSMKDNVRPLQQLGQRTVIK
T5 sequence (O43570 25-301 limits assumed): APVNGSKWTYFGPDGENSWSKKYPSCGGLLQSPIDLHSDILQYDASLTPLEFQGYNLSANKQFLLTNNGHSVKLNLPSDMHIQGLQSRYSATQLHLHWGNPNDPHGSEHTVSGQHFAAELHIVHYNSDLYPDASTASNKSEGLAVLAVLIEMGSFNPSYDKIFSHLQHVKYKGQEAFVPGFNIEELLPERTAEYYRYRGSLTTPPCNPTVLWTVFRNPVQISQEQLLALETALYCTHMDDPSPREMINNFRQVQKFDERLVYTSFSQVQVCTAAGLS
T6 sequence (Q9ULX7 16-290 limits assumed): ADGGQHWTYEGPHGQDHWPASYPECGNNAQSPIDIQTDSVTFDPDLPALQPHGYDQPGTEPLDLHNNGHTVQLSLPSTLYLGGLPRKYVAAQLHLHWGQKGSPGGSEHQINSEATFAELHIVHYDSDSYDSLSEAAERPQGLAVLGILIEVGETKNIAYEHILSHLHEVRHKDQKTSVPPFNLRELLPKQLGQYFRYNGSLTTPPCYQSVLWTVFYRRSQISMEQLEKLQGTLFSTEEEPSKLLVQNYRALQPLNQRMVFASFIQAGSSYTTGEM

B1: 3BP-4356 (peptide)
peptide: {DOTA-APAc″}-VYCE[dP]D[Aph(HO-Succinyl)]LTWSC-NH2
modifications: linker 3-12 via mXylylene
- pKD [1]: 7.1 to 8 pkd
- t1/2 (half-life of the complex, SPR) [2]: ≤ 2 min

B2: 3BP-4497 (peptide)
peptide: {DOTA-PPAc}-DCE[dP]D[Phe(3-NHCO(CH2)3SO2NH2)]LTW[Dap]C-NH2
modifications: lactam 1-10; linker 2-11 via mXylylene
- pKD [3]: > 8 pkd
- t1/2 (half-life of the complex, SPR) [4]: > 15 min
- pIC50 [5]: 7.1 to 8 pic50

B3: 3BP-4338 (peptide)
peptide: DCE[dP]DWLTW[Dap]C-NH2
modifications: lactam 1-10; linker 2-11 via mXylylene; not fully specified (N-terminus); also: indium complexed by DOTA
- pIC50 [6]: > 8 pic50

B4: 3BP-3869 (peptide)
peptide: {DOTA-AEEA}-YCE[dP]DWLTWSC-NH2
modifications: linker 2-11 via mXylylene
SMILES: CC(C)C[C@@H]1NC(=O)[C@H](Cc2c[nH]c3ccccc23)NC(=O)[C@H](CC(=O)O)NC(=O)[C@H]2CCCN2C(=O)[C@H](CCC(=O)O)NC(=O)[C@@H](NC(=O)[C@H](Cc2ccc(O)cc2)NC(=O)COCCOCCNC(=O)CN2CCN(CC(=O)O)CCN(CC(=O)O)CCN(CC(=O)O)CC2)CSCc2cccc(c2)CSC[C@@H](C(N)=O)NC(=O)[C@H](CO)NC(=O)[C@H](Cc2c[nH]c3ccccc23)NC(=O)[C@H]([C@@H](C)O)NC1=O
- pKD [1]: 7.1 to 8 pkd
- t1/2 (half-life of the complex, SPR) [7]: 2.1 to 5 min

B5: 3BP-4263 (peptide)
peptide: {DOTA-Gab}-DCE[dP]DWLTW[Dap]C-NH2
modifications: lactam 10-1; linker 2-11 via mXylylene
- pIC50 [6]: > 8 pic50

B6: 3BP-4264 (peptide)
peptide: {DOTA}-VDCE[dP]DWLTW[Dap]C-NH2
modifications: lactam 2-11; linker 3-12 via mXylylene
SMILES: CC(C)C[C@@H]1NC(=O)[C@H](Cc2c[nH]c3ccccc23)NC(=O)[C@H](CC(=O)O)NC(=O)[C@H]2CCCN2C(=O)[C@H](CCC(=O)O)NC(=O)[C@@H]2CSCc3cccc(c3)CSC[C@@H](C(N)=O)NC(=O)[C@H](CNC(=O)C[C@H](NC(=O)[C@@H](NC(=O)CN3CCN(CC(=O)O)CCN(CC(=O)O)CCN(CC(=O)O)CC3)C(C)C)C(=O)N2)NC(=O)[C@H](Cc2c[nH]c3ccccc23)NC(=O)[C@H]([C@@H](C)O)NC1=O
- pIC50 [6]: > 8 pic50

B7: 3BP-4501 (peptide)
peptide: {DOTA}-QCE[dP]D[Aph(SaPr)]LTWSC-NH2
modifications: linker 2-11 via mXylylene
SMILES: CC(C)C[C@@H]1NC(=O)[C@H](Cc2ccc(NC(=O)CCS(N)(=O)=O)cc2)NC(=O)[C@H](CC(=O)O)NC(=O)[C@H]2CCCN2C(=O)[C@H](CCC(=O)O)NC(=O)[C@@H](NC(=O)[C@H](CCC(N)=O)NC(=O)CN2CCN(CC(=O)O)CCN(CC(=O)O)CCN(CC(=O)O)CC2)CSCc2cccc(c2)CSC[C@@H](C(N)=O)NC(=O)[C@H](CO)NC(=O)[C@H](Cc2c[nH]c3ccccc23)NC(=O)[C@H]([C@@H](C)O)NC1=O
notes: also called DPI-4501
- pKD [8]: < 6 pkd
- pKD [9]: < 6 pkd
- pKD [10]: < 6 pkd
- t1/2 (half-life of the complex, SPR) [4]: > 15 min

B8: 3BP-4886 (peptide)
peptide: {DOTA-PPAc}-QCE[dP]D[Af3(Aype)]LTWSC-NH2
modifications: linker 2-11 via mXylylene; reading uncertain
- pIC50 [11]: 6.1 to 7 pic50

B9: 3BP-4884 (peptide)
peptide: {DOTA-PPAc}-QCE[dP]D[Aph(Aybu)]LTWSC-NH2
modifications: linker 2-11 via mXylylene; reading uncertain
- pIC50 [11]: 6.1 to 7 pic50

B10: 3BP-4337 (peptide)
peptide: VDCE[dP]DWLTW[Dap]C-NH2
modifications: lactam 2-11; linker 3-12 via mXylylene; not fully specified (N-terminus); also: indium complexed by DOTA
- pIC50 [6]: > 8 pic50

B11: 3BP-4787 (peptide)
peptide: {DOTA-PPAc}-QCE[dP]D[Af3(Cshx)]LTWSC-NH2
modifications: linker 2-11 via mXylylene
- pIC50 [11]: 6.1 to 7 pic50

B12: 3BP-4305 (peptide)
peptide: {DOTA-APAc″}-VYCE[dP]D[Af3(CMPy)]LTWSC-NH2
modifications: linker 3-12 via mXylylene
- pKD [1]: 7.1 to 8 pkd
- t1/2 (half-life of the complex, SPR) [2]: ≤ 2 min

B13: 3BP-4452 (peptide)
peptide: {DOTA-PPAc″}-QCE[dP]D[Phe(3-NHCO(CH2)3SO2NH2)]LTWSC-NH2
modifications: linker 2-11 via mXylylene; reading uncertain
notes: also called DPI-4452
- pKD [8]: < 6 pkd
- pKD [9]: < 6 pkd
- pKD [10]: < 6 pkd
- t1/2 (half-life of the complex, SPR) [4]: > 15 min

B14: 3BP-4814 (peptide)
peptide: {DOTA-PPAc}-QCE[dP]D[Aph(Hspy)]LTWSC-NH2
modifications: linker 2-11 via mXylylene
- pIC50 [11]: 6.1 to 7 pic50

B15: 3BP-4555 (peptide)
peptide: QCE[dP]D[Phe(3-NHCO(CH2)3SO2NH2)]LTWSC-NH2
modifications: linker 2-11 via mXylylene; not fully specified (N-terminus); also: Lu complexed in DOTA
notes: also called natLu-DPI-4452
- pKD [8]: < 6 pkd
- pKD [9]: < 6 pkd
- pKD [10]: < 6 pkd
- t1/2 (half-life of the complex, SPR) [4]: > 15 min

B16: 3BP-4360 (peptide)
peptide: {DOTA-APAc″}-VYCE[dP]D[Aph(MSAc)]LTWSC-NH2
modifications: linker 3-12 via mXylylene
- pIC50 [12]: 6.1 to 7 pic50

B17: 3BP-4882 (peptide)
peptide: {DOTA-PPAc}-QCE[dP]D[Af3(Hytr)]LTWSC-NH2
modifications: linker 2-11 via mXylylene; reading uncertain
- pIC50 [11]: 6.1 to 7 pic50

B18: 3BP-4581 (peptide)
peptide: {DOTA}-QCE[dP]D[Aph(SaPr)″]LTWSC-NH2
modifications: linker 2-11 via mXylylene; also: Lu complexed in DOTA
notes: also called natLu-3BP-4501
- pKD [8]: < 6 pkd
- pKD [9]: < 6 pkd
- pKD [10]: < 6 pkd
- t1/2 (half-life of the complex, SPR) [4]: > 15 min

B19: 3BP-4847 (peptide)
peptide: {DOTA-PPAc}-QCE[dP]D[Af3(Aytr)]LTWSC-NH2
modifications: linker 2-11 via mXylylene
- pIC50 [11]: 6.1 to 7 pic50

B20: 3BP-4288 (peptide)
peptide: {DOTA-APAc″}-VYCE[dP]D[Af3(DkpAc)]LTWSC-NH2
modifications: linker 3-12 via mXylylene
- pKD [1]: 7.1 to 8 pkd
- t1/2 (half-life of the complex, SPR) [2]: ≤ 2 min

B21: 3BP-4515 (peptide)
peptide: {DOTA-PPAc}-QCE[dP]D[Af3(PrHydr)]LTWSC-NH2
modifications: linker 2-11 via mXylylene
- t1/2 (half-life of the complex, SPR) [7]: 2.1 to 5 min
- pIC50 [5]: 7.1 to 8 pic50
